The subject of the series is Nc1ncnc2c1ncn2[C@@H]1O[C@H](COP(=O)(O)OP(=O)(O)OP(=O)(O)O)[C@@H](O)[C@H]1O. Briefly: Omnia kinase assay. The series is classed as biochemical, Homo sapiens. The conditions noted are these: Sox peptide co-substrate, pH 7.5, 25 mM MgCl2, 25 °C.

Drawing on article doi:10.1101/2020.07.01.182642v1, this text covers Km for two substances.

Consider CLK3 (R134-T484) (Homo sapiens), for which the Km (commonly the concentration of substrate that gives half-maximal velocity) was found to be 58.9 ± 20.3 µM.
Then CLK3 (R134-T484) (Homo sapiens; A319V), with 8.6 ± 4.2 µM.
